{
  "source": "patent US20210330742",
  "molecular_target": "CDK4 (UniProt P11802)",
  "sequence (P11802 2-303)": "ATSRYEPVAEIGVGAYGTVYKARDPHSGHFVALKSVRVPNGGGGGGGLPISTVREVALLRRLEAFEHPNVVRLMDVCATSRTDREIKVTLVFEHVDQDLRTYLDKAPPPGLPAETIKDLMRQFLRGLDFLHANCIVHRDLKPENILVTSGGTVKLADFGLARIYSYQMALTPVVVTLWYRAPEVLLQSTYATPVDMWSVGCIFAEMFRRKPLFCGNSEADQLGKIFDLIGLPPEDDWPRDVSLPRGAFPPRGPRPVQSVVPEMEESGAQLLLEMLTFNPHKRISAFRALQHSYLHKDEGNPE",
  "data": [
    {"substance": "JNK", "values": [
      {"measurement": "phosphorylation of CDK4 at Thr-172 (immunoblot)", "value": "JNK phosphorylated T172 of CDK4 2 hours after serum stimulation"}
    ]}
  ]
}
